{"source": "paper PMC9605926", "about": "“Safety of [^177Lu]Lu-NeoB treatment: a preclinical study characterizing absorbed dose and acute, early, and late organ toxicity” (European Journal of Nuclear Medicine and Molecular Imaging, 2022)", "key": {"[1]": {"system": "healthy Balb/c mice", "assay": "Toxicity study, histopathology (5-point grade); 3 i.v. injections at 7-day interval; control group 2 = 3× 1200 pmol [175Lu]Lu-NeoB; treatment groups 1/2/3 = 3× 40 MBq/400 pmol, 80 MBq/800 pmol, 120 MBq/1200 pmol [177Lu]Lu-NeoB", "format": "in vivo, mouse", "description": "(§1) Five different experimental groups (10 male and 10 female healthy animals per group; n = 100) were included in the radiotoxicity study and treated as follows: control group 1: 3 × vehicle (PBS + kolliphor HS 15 (1 mg/mL)); control group 2: 3 × 1200 pmol [^175Lu]Lu-NeoB; treatment group 1: 3 × 40 MBq/400 pmol [^177Lu]Lu-NeoB; treatment group 2: 3 × 80 MBq/800 pmol [^177Lu]Lu-NeoB; and treatment group 3: 3 × 120 MBq/1200 pmol [^177Lu]Lu-NeoB.\n(§2) Animals received 3 injections with an interval of 7 days between each injection.\nAt 5, 19, and 43 weeks after the first injection, 3–4 male and 3–4 female animals of each group were sacrificed by isoflurane overdose after a blood sample was taken by retro-orbital puncture. Hereafter, the axillary lymph nodes, mesenteric lymph nodes, skin, mammary fat pad, sternum, pancreas, adrenal glands, kidneys, spleen, liver, gallbladder, stomach, duodenum, jejunum, ileum, caecum, colon, rectum, testes (M), epididymis (M), seminal vesicles (M), prostate gland (M), ovaries (F), oviducts (F), uterus-cervix (F), vagina (F), bladder, ureters, sciatic nerve, skeletal muscle, femur, lungs, trachea, esophagus, thymus, thyroid gland, aorta, heart, brain, pituitary gland, eyes, harderian glands, tongue, spinal column, and the tail were collected and analyzed macroscopically. All organs and tissues were formalin fixed (4% buffered formaldehyde) and shipped to the European Research Biology Centre (ERBC, Pomezia, Rome, Italy) where histological sampling, embedding, sectioning (5 µm thick), and hematoxylin–eosin staining were performed according to standard guidelines. All organs and tissues were analyzed microscopically by an experienced pathologist. A 5-point grading scale was used: 1: minimal change, 2: mild change, 3: moderate change, 4: marked change, 5: severe change."}, "[2]": {"system": "healthy Balb/c mice", "assay": "Toxicity study, clinical chemistry", "format": "in vivo, mouse", "conditions": "control group 2, 5, 11, 19, 30, 43 wk, mean±SD", "description": "as §1, §2\nIn addition, the following clinical chemistry parameters were measured: sodium, potassium chloride, calcium, glucose, creatinine, urea, alanine aminotransferase (ALT), aspartate aminotransferase (AST), alkaline phosphatase (ALP), amylase, lipase, and cholesterol, using the Roche/Hitachi cobas c systems according to the standard protocol. To reach the volume necessary for measuring the clinical chemistry parameters, the blood plasma was diluted 3–5 times with demineralized water."}, "[3]": {"system": "healthy Balb/c mice", "assay": "Toxicity study, hematology (same groups as A3)", "format": "in vivo, mouse", "conditions": "control group 2, 5, 11, 19, 30, 43 wk, mean±SD", "description": "as §1, §2\nThroughout the study, the animals were observed daily to check for physical signs of toxicity and signs of discomfort, and animals were weighed 2–3 times per week. Furthermore, at week -1, 5, 11, 19, 30, and 43, blood samples were collected by submandibular puncture from all animals that were in the study at that time point. All blood samples were analyzed for hematological parameters (hematocrit; hemoglobin; red blood cell count; white blood cell count; hemoglobin; mean cell hemoglobin concentration; mean cell volume; platelet count) on the scilVet abc + counter (Covetrus)."}, "[4]": {"system": "patients", "conditions": "human, in vivo; cited from earlier work", "description": "Due to the very small size of murine kidneys and the long range of β^− particles, the murine kidneys receive a more homogeneous radiation dose compared to the much larger human kidneys. […] These ... || Bone marrow toxicity is a concern when using targeted radionuclide therapy with, for example, lutetium-177 labeled peptides with a long circulation time. Here, we found a decrease in WBC counts 5 weeks after radioligand injection in treatment group 3, which received bone marrow doses between 0.20 and 0.36 Gy. Although not clear from our histopathological analysis, this finding could potentially indicate bone marrow suppression. However, it should also be noted that the brief drop in WBC counts may have (partly) been caused by the reported urinary bladder inflammation. The observed ..."}, "[5]": {"conditions": "female wk 43, control group 2, grade 1"}, "[6]": {"conditions": "female wk 43, control group 2, grade 2"}, "[7]": {"conditions": "male wk 5, control group 2, grade 1"}, "[8]": {"conditions": "male wk 5, control group 2, grade 2"}, "[9]": {"conditions": "male wk 19, control group 2, grade 1"}, "[10]": {"conditions": "male wk 43, control group 2, grade 1"}, "[11]": {"conditions": "male wk 43, control group 2, grade 2"}}, "note": "“And” between values parts separate entries of the source, which are not always exact repeats. Equal values may be shown once."}
{"molecule": "CC(C)CC(CC(C)C)NC(=O)[C@H](Cc1cnc[nH]1)NC(=O)CNC(=O)[C@@H](NC(=O)[C@H](C)NC(=O)[C@H](Cc1c[nH]c2ccccc12)NC(=O)[C@H](CCC(N)=O)NC(=O)[C@@H](Cc1ccccc1)NC(=O)COCC(=O)Nc1ccc(CNC(=O)CN2CCN(CC(=O)O)CCN(CC(=O)O)CCN(CC(=O)O)CC2)cc1)C(C)C", "note": "[[^175Lu]Lu-NeoB]", "values": [{"measurement": "Treatment-related toxicological effects", "setting": "[1]; control group 2, 3× 1200 pmol, male and female", "result": "did not show any treatment-related toxicological effects"}, {"measurement": "Adrenal glands subcapsular cell hyperplasia, incidence", "setting": "[1]; female wk 5, control group 2, grade 1", "result": "2/3"}, {"measurement": "Brain artifacts, incidence", "setting": "[1]; female wk 5, control group 2, grade 3", "result": "1/3"}, {"measurement": "Adrenal glands subcapsular cell hyperplasia, incidence", "setting": "[1]; female wk 19, control group 2, grade 1", "result": "1/3"}, {"measurement": "Adrenal glands subcapsular cell hyperplasia, incidence", "setting": "[1]; female wk 19, control group 2, grade 2", "result": "2/3"}, {"measurement": "Adrenal glands subcapsular cell hyperplasia, incidence", "setting": "[1]; [5]", "result": "1/4"}, {"measurement": "Liver inflammatory cell foci, incidence", "setting": "[1]; [5]", "result": "1/4"}, {"measurement": "Adrenal glands subcapsular cell hyperplasia, incidence", "setting": "[1]; [6]", "result": "2/4"}, {"measurement": "Pancreas inflammatory cell foci, incidence", "setting": "[1]; [6]", "result": "1/4"}, {"measurement": "Uterus endometrial hyperplasia, incidence", "setting": "[1]; female wk 43, control group 2, grade 4", "result": "1/4"}, {"measurement": "Adrenal glands accessory cortical tissue, incidence", "setting": "[1]; [7]", "result": "1/3"}, {"measurement": "Adrenal glands subcapsular cell hyperplasia, incidence", "setting": "[1]; [7]", "result": "1/3"}, {"measurement": "Adrenal glands subcapsular cell hyperplasia, incidence", "setting": "[1]; [8]", "result": "1/3"}, {"measurement": "Spleen extramedullary haematopoiesis, incidence", "setting": "[1]; [8]", "result": "1/3"}, {"measurement": "Adrenal glands subcapsular cell hyperplasia, incidence", "setting": "[1]; [9]", "result": "2/3"}, {"measurement": "Pancreas inflammatory cell foci, incidence", "setting": "[1]; [9]", "result": "1/3"}, {"measurement": "Urinary bladder proteinaceous plug, incidence", "setting": "[1]; male wk 19, control group 2, grade 2", "result": "1/3"}, {"measurement": "Adrenal glands subcapsular cell hyperplasia, incidence", "setting": "[1]; [10]", "result": "3/4"}, {"measurement": "Kidneys inflammatory cell foci, incidence", "setting": "[1]; [10]", "result": "1/4"}, {"measurement": "Testes germ cell depletion, incidence", "setting": "[1]; [10]", "result": "1/4"}, {"measurement": "Adrenal glands subcapsular cell hyperplasia, incidence", "setting": "[1]; [11]", "result": "1/4"}, {"measurement": "Pancreas inflammatory cell foci, incidence", "setting": "[1]; [11]", "result": "1/4"}, {"measurement": "Kidneys cyst/s, incidence", "setting": "[1]; male wk 43, control group 2, grade 3", "result": "1/4"}, {"measurement": "Alk. Phosphatase", "setting": "[2]; female", "result": "100.20 ± 6.96 U/L and 84.43 ± 7.63 U/L and 73.57 ± 9.88 U/L and 86.25 ± 8.54 U/L and 71.25 ± 14.93 U/L"}, {"measurement": "Urea", "setting": "[2]; female", "result": "7.83 ± 0.88 mmol/L and 7.07 ± 1.19 mmol/L and 6.14 ± 0.38 mmol/L and 7.00 ± 0.00 mmol/L and 6.17 ± 0.76 mmol/L"}, {"measurement": "Alk. Phosphatase", "setting": "[2]; male", "result": "117.70 ± 8.30 U/L and 100.29 ± 7.72 U/L and 62.50 ± 6.45 U/L and 80.00 ± 7.07 U/L and 67.50 ± 2.89 U/L"}, {"measurement": "Urea", "setting": "[2]; male", "result": "7.17 ± 0.64 mmol/L and 5.61 ± 0.86 mmol/L and 5.75 ± 0.65 mmol/L and 6.75 ± 1.55 mmol/L and 8.00 ± 2.12 mmol/L"}, {"measurement": "WBC", "setting": "[3]; female", "result": "7.27 ± 1.51 103/mm3 and 8.51 ± 2.34 103/mm3 and 6.74 ± 3.19 103/mm3 and 10.38 ± 2.86 103/mm3 and 7.40 ± 0.72 103/mm3"}, {"measurement": "WBC", "setting": "[3]; male", "result": "7.67 ± 1.50 103/mm3 and 8.37 ± 2.67 103/mm3 and 9.53 ± 2.84 103/mm3 and 9.80 ± 2.25 103/mm3 and 6.70 ± 2.71 103/mm3"}]}
{"molecule": "[^177Lu]Lu-DOTATATE", "values": [{"measurement": "Average absorbed bone marrow dose", "setting": "[4]", "result": 2, "unit": "Gy"}, {"measurement": "Average kidney dose in patients", "setting": "[4]", "result": "20.1 ± 4.9", "unit": "Gy"}, {"measurement": "Minimal to mild nephrotoxicity, cases", "setting": "[4]", "result": "6/79"}]}
